Source: US20060083742A1

Experiments:
[1] = biological target: YFP-Bcl-XL (human) (UniProt Q07817); assay: acceptor-photobleaching FRET on single mitochondria of living cells after PKC agonist
[2] = biological target: CFP-Bcl-XL (human) (UniProt Q07817); assay: FRET on mitochondria of bryostatin-1 treated Cos-1 cell, with the fluorophores as the legend of FIG. 5A names them

## CFP-K-Ras12V (from UniProt P01116 1-186)
[1]
  FRET efficiency: 17%

## YFP-K-Ras12V (from UniProt P01116 1-186)
[2]
  FRET efficiency: 17%
